Data on two molecules can be found in patent US20150307589A1 (INSERM INSTITUT NATIONAL DE LA SANTE ET DE LA RECHERCHE …, published 2015).

The target of series [1] is NRP1 expressed on COS cells (COS-NRP1). Nature of the series: cell-based or functional assay.
Series [2] concerns the molecule itself. Briefly: sucrose density gradient sedimentation of C6 cell lysates, anti-NRP1 western blot.

For the molecule Sema3A (ligand), the collapsed COS-1 cells expressing NRP1 and Plexin-A1 in series [1] is > 50%.

B1: NRP1 on rat C6 glioma cells (receptor, rat (Rat C6 glioma cells), UniProt Q9QWJ9 22-922, looked up)
chain: FRSDKCGGTIKIENPGYLTSPGYPHSYHPSEKCEWLIQAPEPYQRIMINFNPHFDLEDRDCKYDYVEVIDGENEGGRLWGKFCGKIAPSPVVSSGPFLFIKFVSDYETHGAGFSIRYEIFKRGPECSQNYTAPTGVIKSPGFPEKYPNSLECTYIIFAPKMSEIILEFESFDLEQDSNPPGGVFCRYDRLEIWDGFPEVGPHIGRYCGQKTPGRIRSSSGILSMVFYTDSAIAKEGFSANYSVLQSSISEDFKCMEALGMESGEIHSDQITASSQYGTNWSVERSRLNYPENGWTPGEDSYREWIQVDLGLLRFVTAVGTQGAISKETKKKYYVKTYRVDISSNGEDWITLKEGNKAIIFQGNTNPTDVVFGVFPKPLITRFVRIKPASWETGISMRFEVYGCKITDYPCSGMLGMVSGLISDSQITASNQGDRNWMPENIRLVTSRTGWALPPSPHPYINEWLQVDLGDEKIVRGVIIQGGKHRENKVFMRKFKIAYSNNGSDWKMIMDDSKRKAKSFEGNNNYDTPELRAFTPLSTRFIRIYPERATHSGLGLRMELLGCEVEVPTAGPTTPNGNPVDECDDDQANCHSGTGDDFQLTGGTTVLATEKPTIIDSTIQSEFPTYGFNCEFGWGSHKTFCHWEHDSHAQLRWRVLTSKTGPIQDHTGDGNFIYSQADENQKGKVARLVSPVVYSQSSAHCMTFWYHMSGSHVGTLRVKLHYQKPEEYDQLVWMVVGHQGDHWKEGRVLLHKSLKLYQVIFEGEIGKGNLGGIAVDDISINNHIPQEDCAKPTDLDKKNTEIKIDETGSTPGYEEGKGDKNISRKPGNVLKTLDPILITIIAMSALGVLLGAVCGVVLYCACWHNGMSERNLSALENYNFELVDGVKLKKDKLNPQSNYSEA
notes: whole, on cells; It is not tied expressly to the C6 cells; also called neuropilin-1; receptor NRP1 on C6 cells
For the molecule B1, the binding result in series [2] is “binds”.
